Test results: patent publication US5571894, “Recombinant antibodies specific for a growth factor receptor” (Ciba-Geigy Corporation, dated 1996)

B1: mouse monoclonal antibody FWP51 (antibody, V domains shown)
VH: QVQLQQSGAELVRPGTSVKLSCKASDYTFTSYWMNWVKQRPGQGLEWIGMIDPSDSETQYNQMFKDKAALTVDKSSNTAYMQLSSLTSEDSAVYYCAKGGASGDWYFDVWGQGTTVTVSS
VL: DIQLTQSPSSLSASLGGEVTITCKASQDIKKYIAWYQHKPGKSPRLLIHYTSVLQPGIPSRFSGSGSGRDYSFSIHNLEPEDIATYYCLHYDYLYTFGGGTKLEI
B2: mouse monoclonal antibody FRP5 (antibody, V domains shown)
VH: QVQLQQSGPELKKPGETVKISCKASGYPFTNYGMNWVKQAPGQGLKWMGWINTSTGESTFADDFKGRFDFSLETSANTAYLQINNLKSEDMATYFCARWEVYHGYVPYWGQGTTVTVSS
VL: DIQLTQSHKFLSTSVGDRVSITCKASQDVYNAVAWYQQKPGQSPKLLIYSASSRYTGVPSRFTGSGSGPDFTFTISSVQAEDLAVYFCQQHFRTPFTFGSGTKLEI

What was measured:
human c-erbB-2 protein [1] = target: T1, human c-erbB-2 protein (human, UniProt P04626); assay: flow cytometry on SKBR3 cells
[2] = target: 185 kD c-erbB-2 protein from SKBR3 cell lysates (human, UniProt P04626); assay: immunoprecipitation from SKBR3 extract, blot detected with antiserum 21N
human c-erbB-2 protein [3] = target: T1, human c-erbB-2 protein; assay: immunofluorescent staining of fixed HC11 cells transfected with human c-erbB-2 (clone R1#11), non-transfected HC11 as control; screen of hybridoma supernatants

Binder	binding result (human c-erbB-2 protein [1])	binding result [2]	binding result (human c-erbB-2 protein [3])
B1	binds	binds	–
B2	–	binds	binds
